Laboratory results: patent US8883973B2

Molecular target: human FcRn (complex of His-tagged FcRn alpha chain with beta 2 microglobulin) (human) (UniProt P55899)
Assay: SPR (Biacore), human FcRn on chip, pH 6.0

| Substance | fold FcRn binding (fold of Ka* relative to WT IgG1) | fold FcRn binding (fold of Ka* relative to WT) |
| --- | --- | --- |
| 257L IgG1 anti-VEGF antibody | 3.4 fold |  |
| 257N IgG1 anti-VEGF antibody | 3.5 fold |  |
| 428L/434S IgG1 anti-VEGF antibody |  | 17.3 fold |
| 434S IgG1 anti-VEGF antibody |  | 3.8 fold |
